According to the supplement of paper PMC9170038:

Tested on: MS2 coat protein
Test: apparent KD of MS2 coat protein; designed switch direction (-1 OFF switch, 1 ON switch): -1; higher = weaker reporter binding
How it was run: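 Designed RNA switches with common flanks were made on Illumina chips by stalled E. coli RNA polymerase. Titration with SNAP-549-labelled MS2 coat protein doubled from 0.7 or 1.5 nM up to 3 µM. Apparent KD is each design's median over clusters after curve-fitting normalised fluorescence.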

[1] = input ligand: microRNA oligo, concentration not stated
[2] = Eterna round: R95, input ligand: microRNA oligo, concentration not stated
[3] = Eterna round: R95, input ligand: FMN 200 uM
[4] = Eterna round: R95, input ligand: none

Row | Sequence | apparent KD of MS2 coat protein (input ligand: FMN 200 uM) [nM] | apparent KD of MS2 coat protein [1] [nM] | apparent KD of MS2 coat protein (input ligand: none) [nM] | apparent KD of MS2 coat protein [2] [nM] | apparent KD of MS2 coat protein [3] [nM] | apparent KD of MS2 coat protein [4] [nM]
1 | AAAUAAAACAAGCAAUAAAACAUGAGGAUCACCCAUGUAAAGGGUGAAGUUCGCACCCAAAAAUAAAAUAAAUAAAA [Denovo Take 6, 5] (Eterna round: R96, puzzle: Sensor v2, turn-off variant) | 22.1 | 39.6 | 25 |  |  | 
2 | AGUGUGUUAGGAUAUCGGAUAUGCUGGAGGAGGUGGAGUUACGAGAAGGAACAUGAGGAUCACCCAUGUAGGAC [JR_Exclu4_Sub049] (puzzle: Exclusion 4) |  |  |  | 25.7 |  | 
3 | CCUAUGUGAGGAUAUCACUGGUCUUCUCACUGGAUGAUUAGUGAGAAGGCACAUGAGGAUCACCCAUGUCGGUG [Ex4 - 3 - 51] (puzzle: Exclusion 4) |  |  |  | 524 |  | 
4 | AAUAACAGAGGAUAUACUGUUUUAUGUGUUUGUUAUUUUGAACAUGAGGAUCACCCAUGUAGAAGGCUGAGUAA [JMF 37] (puzzle: Exclusion 2) |  |  |  | 23.6 |  | 
5 | CCACGACAUGAGGAUCACCCAUGUGAGGAUAUGGCCUGUAAGGCGUGAGCUGAAUCAAUCAGAAGGCGCGUGGG [salish99_ex1_r4_057] (Eterna round: R97, puzzle: Exclusion 1) | 92.4 |  | 50.6 |  |  | 
6 | GCUUGUAGAGGAUAUACGAGGGCCCGAGCGGAUAACACCGCACAUGAGGAUCACCCAUGUAGAAGGCUACCACC [Riquinza] (Eterna round: R96, puzzle: Exclusion 2) | 331 | 19.1 | 27.9 |  |  | 
7 | AUAAUGUCAGGAUAUCAGUCGUACAGCUGCGGCUGUACGACUGAGAAGGGACAUGAGGAUCACCCAUGUGGUCA [E4/6-A3] (Eterna round: R97, puzzle: Exclusion 4) | 20.2 |  | 236 |  |  | 
8 | ACUAGCUUUUUGCAUAGUAGGUUUGGUGCUUCGUAUGCAACAUGAGGAUCACCCAUGUAUUACUGAUGUCGUCGUUU [JR_SV3TOV2_Sub092] (puzzle: Sensor v3, turn-off variant 2) |  |  |  | 48.2 | 26.2 | 27.8
9 | UCGCGAAGAGGAUAUACAUAGAAAUAGAUUCAUGUAAAACUACAUGAGGAUCACCCAUGUAGAAGGCUUUGCGU [Mat - Exclusion 2 - JL Mod - D60] (Eterna round: R97, puzzle: Exclusion 2) | 108 |  | 17 |  |  | 
10 | CCCAGUUAGUCAGGAUAUCUUACAUGAGGAUCACCCAUGUAAUAAAUGAGGAUUUCGGGUGUCUAAGAGAAGGGACGGAUAGGC [Ostracism 27 - Jieux - Exclusion NG 2] (Eterna round: R96, puzzle: Exclusion NG 2) | 22.3 | 9.5 | 19.4 |  |  | 
11 | CGGCCGCAAGUCAGGAUAUGGACCUGCUUGGAGGACCAGAAGGGACAUGAGGAUCACCCAUGUGAUGAAAUAAA [BmEX4 A.24] (Eterna round: R97, puzzle: Brourd's mod of Exclusion 4) | 37.8 |  | 28.3 |  |  | 
12 | UUUGUAUAGGUAGGAUAUACUUUCAAUUUUUUUUUCCUUACAUGAGGAUCACCCAUGUUUACAUUGUAGAAGGACCUCAUUGUU [JR_ExcNG2_Sub049] (Eterna round: R96, puzzle: Exclusion NG 2) |  | 325 |  |  |  | 
13 | ACAAGCUUUUUGCUCGUCUACAUGAGGAUCACCCAUGUAGUGAGAUAGUGGUGAAGAUAGAUUGAGCGUAGUAGGUA [JR_SV3TOV1_Sub071] (puzzle: Sensor v3, turn-off variant 1) |  |  |  | 51.7 | 26.9 | 21.5
14 | AAUUACAAGCAAAGAUCUUACAUGAGGAUCACCCAUGUGCUCGUUUUAUAAAGUACUAUCACGAAAGUGAUAGUACA [Mat - Sensor v3 - turn-off var 1 - Eli Mod - D95] (puzzle: Sensor v3, turn-off variant 1) |  |  |  | 90.9 | 29.9 | 26.3
15 | AGGUAGCAAGGAUAUACAACUUUGGGCACUGCCUCUUGGAGACAUGAGGAUCACCCAUGUAGAAGGUGCAGGCC [Tibiarusor] (puzzle: Exclusion 2) |  |  |  | 11.7 |  | 
16 | UUCGUGCAGCUUUGCUGUACGCGUACAUGAGGAUCACCCAUGUAGGAUAUGGUAGGCUUUGCUUACUAGAAGGAUAUUGUGAUC [JL EXNG3 1.32] (Eterna round: R96, puzzle: Exclusion NG 3) | 256 | 80.9 | 123 |  |  | 
17 | GUAGAGUAAGGAUAUCGUGAAUAGGAUAGAAUGGUUAGAAACGAGAAGGUACAUGAGGAUCACCCAUGUAAUGU [Excluse me!!!! 17 - Jieux - Exclusion 4] (puzzle: Exclusion 4) |  |  |  | 20.8 |  | 
18 | ACAGCUAUAGGAUAUACAGCGAGGAAACUUAGUGGGAUCGGACAUGAGGAUCACCCAUGUAGAAGGAUAGACGG [Eternabot (L2) Solution 85] (Eterna round: R97, puzzle: Exclusion 2) | 149 |  | 97.6 |  |  | 

Row | Sequence | apparent KD of MS2 coat protein (input ligand: FMN 200 uM) [nM] | apparent KD of MS2 coat protein [1] [nM] | apparent KD of MS2 coat protein (input ligand: none) [nM] | apparent KD of MS2 coat protein [2] [nM] | apparent KD of MS2 coat protein [3] [nM] | apparent KD of MS2 coat protein [4] [nM]
19 | GCAGCGUAGUCUAAAUAAGACAUACAUGAGGAUCACCCAUGUCAGGAUAUGGUCUGGAUUACAGGCCAGAAGGGACAAAGCUGC [Eli exng3 - 002] (Eterna round: R96, puzzle: Exclusion NG 3) | 21.4 | 16.5 | 17.7 |  |  | 
20 | UAGCAUUGCCAAAGGUAGUGCAAAACAUGAGGAUCACCCAUGUAGGAUAUGGUAGGCAAAGCUUACCAGAAGGACAUGAUAAUU [Mat - Exclusion NG 3 - Mod of JL - D17] (Eterna round: R96, puzzle: Exclusion NG 3) | 204 | 46.3 | 51.5 |  |  | 
21 | GUUAUGUCAGGAUAUGCUAAUGAUGAGUGAUCAGACAUGAUGUAGAAGGGACAUGAGGAUCACCCAUGUAAUAU [EX4 #8] (Eterna round: R97, puzzle: Exclusion 4) | 114 |  | 122 |  |  | 
22 | AAGAAACAUGAGGAUCACCCAUGUGAGGAUAUGAUGAGUAUUAUGUAUGUAGUAUGAAUCAGAAGGCACAAAGG [Mat - Mod Mix D40] (puzzle: Exclusion 1) |  |  |  | 95 | 224 | 158
23 | CUUUUGUGAGGAUAUCAGUAGUAAAAAAUUAAAAUUACUACUGAGAAGGCACAUGAGGAUCACCCAUGUUCCUC [salish99_ex4_r3_021] (puzzle: Exclusion 4) |  |  |  | 37.7 |  | 
24 | GGUGAGCUAGGAUAUGCUUUGGGCUCGCUUUCCUUCGAUAUACUUGAGGAUCACCCAAGUAGAAGGAGCUUGCC [salish99_ex2_r4_034] (Eterna round: R97, puzzle: Exclusion 2) | 11.1 |  | 11.2 |  |  | 
25 | CGGAUGUGAGGAUAUACAUGAGGAUCACCCAUGUGAGCCAGCUAGCUGACUGGCUCAUGUAGAAGGCACGUCUG [JL-ex3-2.15 Brourd mod] (puzzle: Exclusion 3) |  |  |  | 42.2 |  | 
26 | GUGCCGCGAGGAUAUACAGACGGGUCCAGUACGUGUCUGGGACUUGAGGAUCACCCAAGUAGAAGGCGUCUCAG [salish99_ex2_r4_613] (Eterna round: R97, puzzle: Exclusion 2) | 39.9 |  | 44.6 |  |  | 
27 | GAAAAGGUAGGAUAUACGAAAAAAAAGUGUAGAAAAAAAACACAUGAGGAUCACCCAUGUAGAAGGACCAAAAG [salish99_ex2_r3_069] (puzzle: Exclusion 2) |  |  |  | 34.8 | 27 | 32.6
28 | UUUUAGAGAGGAUAUAUUAUGUGAAACAUGAGGAUCACCCAUGUAAUAUAAUGGAUGUAAAUAGAAGGCUCAUUUA [Mat - Exclusion 5 - JL mod - D22] (puzzle: Exclusion 5) |  |  |  | 28.4 | 28.4 | 41.1
29 | UUCGUGCUGCUUUGCUGUACGAGUACAUGAGGAUCACCCAUGUAGGAUAUGGUUCGCUUUGCGUGCUAGAAGGAUAUGUGUUGC [salish99_ExNG3_r04_507] (Eterna round: R96, puzzle: Exclusion NG 3) | 26.2 | 17.8 | 26 |  |  | 
30 | ACAACAAGCUUUUUGUUCGUAGAACAUGAUGCUCUAGUCACAUGAGGAUCACCCAUGUCAGCCAGUUAGAUAGGUGA [JR_SV3TOV2_Sub064] (puzzle: Sensor v3, turn-off variant 2) |  |  |  | 133 | 75.2 | 81.1
31 | GUAUGAGGAGGAUAUACGUAUCCUUGACCCUGCUAGCGCGGACAUGAGGAUCACCCAUGUAGAAGGUUUCGACA [Eternabot (L1) Solution 46] (Eterna round: R97, puzzle: Exclusion 2) | 28.8 |  | 38.6 |  |  | 
32 | CGAUCCGUAGAGGAUAUAGGACGUCAUAGCGAUUUAGAAGGCUACACAUGAGGAUCACCCAUGUACAUUUCAUA [Eternabot (L1) Solution 60] (Eterna round: R97, puzzle: Exclusion 6) | 18.9 |  | 18.1 |  |  | 
33 | CACUGCAGGUUAGGAUAUGGACAACAACAUGAGGAUCACCCAUGUAUGUAUGAACAUGUUGAUCACCAGAAGGAACACAUCAGU [Exclusion NG 2 S2] (Eterna round: R96, puzzle: Exclusion NG 2) | 12.2 | 9.35 | 11.8 |  |  | 
34 | UCAUACGGUGAGGAUAUCUCCACUAAAGUGUGAAGAGAAGGCGCUACAUGAGGAUCACCCAUGUCUAUGGGCAG [Ex-6 Malc#15] (puzzle: Exclusion 6) |  |  |  | 75 | 37.4 | 109
35 | AAAGAGCGAGGAUAUGCGUGCCGGUGCGGCCAGCCGAUGUGACAUGAGGAUCACCCAUGUAGAAGGCGCAGAAA [Excls2-VIII] (puzzle: Exclusion 2) |  |  |  | 12.8 |  | 
